From patent publication US20250282834A1 (University of California, published 2025)
Non-standard residues stand in square brackets, D forms with d. No end group written: not given here. *: point of attachment. Biotin = O=C1N[C@H]2[C@H](CS[C@H]2CCCCC(=O)*)N1; Orn = NCCC[C@H](N)C(=O)O; βAla = NCCC(=O)O

Tests used:
1531-1912 = target: T1, 1531-1912; assay: ELISA, plate coated with 1 µM biotinylated VGN73, Flag-CHD4 deletion protein titrated, OD 450 nm
T1 construct: Member of the group m7; The map draws it with CHDCT2 only, without PHD; also called Flag-CHD4 deletion protein 1531-1912

685-1245 = target: T2, 685-1245; assay: as above
T2 construct: Member of the group m7; The map draws it with the ATPase and C-terminal helicase boxes only, without PHD; also called Flag-CHD4 deletion protein 685-1245

1250-1912 = target: T3, 1250-1912; assay: as above
T3 construct: Member of the group m7; The map draws it with the two DUF domains and CHDCT2, without PHD; also called Flag-CHD4 deletion protein 1250-1912

[1] = target: T4, full-length Flag-CHD4 (chromodomain helicase DNA-binding protein 4) (UniProt Q14839 1-1912); assay: ELISA, plate coated with 1 µM biotinylated VGN73, Flag-CHD4 protein titrated, OD 450 nm
T4 construct: FLAG-tagged, made in recombinant baculovirus infected Sf9 cells and purified on Flag-agarose; also called purified CHD4; full-length CHD4
T4 sequence (Q14839 whole entry): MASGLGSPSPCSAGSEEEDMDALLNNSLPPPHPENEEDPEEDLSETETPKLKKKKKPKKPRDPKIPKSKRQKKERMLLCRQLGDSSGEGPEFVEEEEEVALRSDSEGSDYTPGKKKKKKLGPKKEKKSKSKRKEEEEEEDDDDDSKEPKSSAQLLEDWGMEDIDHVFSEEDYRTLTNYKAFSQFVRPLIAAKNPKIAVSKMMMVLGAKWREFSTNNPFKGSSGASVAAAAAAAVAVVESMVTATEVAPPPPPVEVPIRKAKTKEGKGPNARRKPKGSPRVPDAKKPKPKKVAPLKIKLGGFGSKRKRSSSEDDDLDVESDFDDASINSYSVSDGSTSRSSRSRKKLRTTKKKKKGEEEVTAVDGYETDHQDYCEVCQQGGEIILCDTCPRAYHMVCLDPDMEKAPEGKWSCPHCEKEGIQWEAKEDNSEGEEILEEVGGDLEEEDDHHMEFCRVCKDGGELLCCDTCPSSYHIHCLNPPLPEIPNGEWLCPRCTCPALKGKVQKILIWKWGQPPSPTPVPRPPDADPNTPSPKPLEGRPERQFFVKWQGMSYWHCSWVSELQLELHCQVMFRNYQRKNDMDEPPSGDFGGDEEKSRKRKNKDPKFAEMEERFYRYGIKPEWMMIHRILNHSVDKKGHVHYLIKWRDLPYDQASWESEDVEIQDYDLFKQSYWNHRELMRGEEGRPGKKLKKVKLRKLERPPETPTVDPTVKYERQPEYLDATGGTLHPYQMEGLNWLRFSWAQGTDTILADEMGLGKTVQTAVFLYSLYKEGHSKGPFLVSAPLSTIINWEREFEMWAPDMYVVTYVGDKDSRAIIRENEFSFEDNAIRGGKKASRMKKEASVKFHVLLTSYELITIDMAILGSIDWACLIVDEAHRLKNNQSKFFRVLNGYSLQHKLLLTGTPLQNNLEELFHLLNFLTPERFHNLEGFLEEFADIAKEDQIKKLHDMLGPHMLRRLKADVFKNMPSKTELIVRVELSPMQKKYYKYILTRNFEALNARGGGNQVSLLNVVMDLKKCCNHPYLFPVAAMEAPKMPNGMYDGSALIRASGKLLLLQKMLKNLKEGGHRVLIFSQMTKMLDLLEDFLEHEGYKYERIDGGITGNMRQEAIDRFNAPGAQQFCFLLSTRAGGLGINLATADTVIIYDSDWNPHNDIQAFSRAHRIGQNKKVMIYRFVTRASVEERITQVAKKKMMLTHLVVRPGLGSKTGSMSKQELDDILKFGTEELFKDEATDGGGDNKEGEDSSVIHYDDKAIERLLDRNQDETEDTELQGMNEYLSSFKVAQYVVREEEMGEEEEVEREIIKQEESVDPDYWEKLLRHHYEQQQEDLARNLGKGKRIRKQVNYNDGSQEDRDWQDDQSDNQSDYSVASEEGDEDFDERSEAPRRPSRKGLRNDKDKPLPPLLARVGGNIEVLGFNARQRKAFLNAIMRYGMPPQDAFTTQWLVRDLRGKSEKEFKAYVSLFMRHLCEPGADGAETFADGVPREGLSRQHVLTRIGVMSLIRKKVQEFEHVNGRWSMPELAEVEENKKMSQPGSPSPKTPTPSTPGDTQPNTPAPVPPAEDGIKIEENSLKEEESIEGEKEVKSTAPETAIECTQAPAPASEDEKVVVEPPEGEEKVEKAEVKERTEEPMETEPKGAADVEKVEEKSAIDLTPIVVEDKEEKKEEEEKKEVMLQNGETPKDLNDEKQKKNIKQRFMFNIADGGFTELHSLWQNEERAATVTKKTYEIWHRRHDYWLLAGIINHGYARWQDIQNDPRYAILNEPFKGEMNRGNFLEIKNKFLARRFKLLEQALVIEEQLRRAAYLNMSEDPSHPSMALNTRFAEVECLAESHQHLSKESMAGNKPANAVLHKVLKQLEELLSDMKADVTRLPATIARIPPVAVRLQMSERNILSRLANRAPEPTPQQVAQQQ

[2] = target: T4, full-length Flag-CHD4 (chromodomain …); assay: peptide pull-down: 100 nM purified Flag-CHD4 with 1 µg N-biotinylated peptide, anti-Flag immunoblot
[3] = target: T4, full-length Flag-CHD4 (chromodomain …); assay: BLI, biotinylated peptide on streptavidin tips, full-length Flag-CHD4 at 0-50 nM in solution
[4] = target: T5, CHD4 (endogenous, in PEL cells BC3 / BCBL-1) (UniProt Q14839 1-1912); assay: streptavidin pull-down from BC3 cells incubated with 10 µM biotinylated peptide, anti-CHD4 immunoblot
T5 construct: Cellular protein in treated cells and their lysates
T5 sequence (Q14839 whole entry): as above

B1: VGN73 (TAT-VGN73 fusion peptide) (peptide)
peptide: [dR]KKRR[Orn]RRR[βAla]WKHAVIFWGNDPYGLKK
modifications: also: N-terminal biotin only in ELISA, BLI and pull-down forms
notes: Used without biotin in cell treatment assays; also called LANA peptide; cell-penetrating LANA peptide
B1: no binding (tested: 100 nM) (1531-1912); no binding (tested: 100 nM) (685-1245); no binding (tested: 100 nM) (1250-1912). The “EC50 (read off the curve)” value [1] was about 10 nM.

B2: #1 (peptide)
peptide: Biotin-EQELEEVEEQEEQELEEVEEQEQ
notes: also called N-Biotin LANA peptide 1; KSHV LANA 872-894 as printed
B2: no binding (tested: 1 µg peptide with 100 nM CHD4) [2].

B3: VGN73 mutant peptide (TAT-VGN73 mutant fusion peptide) (peptide)
peptide: [dR]KKRR[Orn]RRR[βAla]AKHAVISAGNDPYGLKK
modifications: also: N-terminal biotin only in BLI form
B3: no binding (tested: 50 nM) [3]; no binding (tested: 10 µM) [4].

B4: modified TAT peptide (peptide)
peptide: RKKRRXRRRA
modifications: d-Arg at position 1; ornithine (ORN) at position 6; beta-alanine at position 10; N-terminal biotin in BLI
notes: also called TAT alone; biotinylated TAT peptide
B4: no binding (tested: 50 nM) [3]; no binding (tested: 10 µM) [4].

B5: #2 (peptide)
peptide: Biotin-EEVEEQEQQGVEQQEQETVEE
notes: also called N-Biotin LANA peptide 2; KSHV LANA 876-896 as printed
B5: no binding (tested: 1 µg peptide with 100 nM CHD4) [2].

B6: #3 (peptide)
peptide: Biotin-ETVEEPIILHGSSSEDEMEVDYP
notes: also called N-Biotin LANA peptide 3; KSHV LANA 892-914
B6: no binding (tested: 1 µg peptide with 100 nM CHD4) [2].

B7: #4 (peptide)
peptide: Biotin-EDEMEVDYPVVSTHEQIASSPPG
notes: also called N-Biotin LANA peptide 4; KSHV LANA 906-928
B7: no binding (tested: 1 µg peptide with 100 nM CHD4) [2].

B8: #5 (peptide)
peptide: Biotin-IASSPPGDNTPDDDPQPGPSREYR
notes: also called N-Biotin LANA peptide 5; KSHV LANA 922-945
B8: no binding (tested: 1 µg peptide with 100 nM CHD4) [2].

B9: #8 (peptide)
peptide: Biotin-QPPVPYRQIDDCPAKARPQHIFYR
notes: also called N-Biotin LANA peptide 8; KSHV LANA 977-1000
B9: no binding (tested: 1 µg peptide with 100 nM CHD4) [2].
